These results are taken from patent US6376240, “RFLAT-1: a transcription factor that activates RANTES gene expression” (Board of Trustees of the Leland Stanford Junior Unversity).

B1: kB probe (dsDNA)
DNA 1: AATTCGTCAGAGGGGACTTTCCGAGAG
DNA 2: CTCTCGGAAAGTCCCCTCTGACGAATT
B2: B probe (dsDNA)
DNA 1: AATTCGCTAGGGGATGCCCCTCAACTGCG
DNA 2: CGCAGTTGAGGGGCATCCCCTAGCGAATT
B3: A probe (dsDNA)
DNA 1: AATTCGTTGCTATTTTGGAAACTCCCCTTG
DNA 2: CAAGGGGAGTTTCCAAAATAGCAACGAATT
B4: E probe (dsDNA)
DNA 1: AATTCTTTGTGCAATTTCACTTATGATACCG
DNA 2: CGGTATCATAAGTGAAATTGCACAAAGAATT
B5: C probe (dsDNA)
DNA 1: AATTCTCTAGATGAGAGAGCAGTGAGGGAGAGACG
DNA 2: CGTCTCTCCCTCACTGCTCTCTCATCTAGAGAATT
B6: A/B probe (dsDNA)
DNA 1: AATTCGCTATTTTGGAAACTCCCCTTAGGGGATGCCCCTCAACTGCG
DNA 2: CGCAGTTGAGGGGCATCCCCTAAGGGGAGTTTCCAAAATAGCGAATT

T1 sequence (Q9Y2Y9 other isoform, or with tags, fused parts or gaps): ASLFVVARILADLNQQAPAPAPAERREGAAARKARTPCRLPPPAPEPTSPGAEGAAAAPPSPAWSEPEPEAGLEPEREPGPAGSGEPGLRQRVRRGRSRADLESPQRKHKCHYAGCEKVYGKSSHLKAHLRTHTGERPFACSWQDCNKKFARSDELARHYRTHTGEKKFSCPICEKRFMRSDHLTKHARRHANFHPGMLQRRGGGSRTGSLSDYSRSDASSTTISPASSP

One data set addresses T1, RFLAT-1 C-terminal portion (aa 59-288) (homo sapien, UniProt Q9Y2Y9 SEQ:59-288). The experiment in a line: EMSA. Conditions: tags: His6 (pET-28a); label: 32P. As for the experimental part: (§1) The wells were incubated in blocking buffer (5% goat serum, 5% horse serum, 0.1% Triton X-100 in PBS), washed in PBS supplemented with 0.1% Triton X-100, and incubated with antigen purified rabbit polyclonal anti-RFLAT-1 (1:500 [v/v]) or rabbit IgG (1:500 [v/v]) (Santa Cruz Biotechnology, Santa Cruz, Calif.). The wells were washed, incubated with goat anti-rabbit FITC (1:2000 [v/v]) (Caltag, Burlingame, Calif.), and anti-FITC Alexa™ 488 (1:2000 [v/v]) (Molecular Probes, Eugene, Oreg.). Finally, the slide was washed with PBS, covered with mounting media (1:3 [v/v], Vectashield with propidium iodide) (Vector, Burlingame, Calif.), cover slipped and sealed. EMSA and supershift assays were performed essentially as described by Ortiz et al., 1996, supra. Oligonucleotides were synthesized by Life Technologies, Inc. (Gaithersburg, Md.) and purified by a polyacrylamide-urea gel. Oligonucleotides were end-labeled using [γ-^32P] ATP and T4 polynucleotide kinase. The following oligonucleotides were used:
(§2) A carboxyl terminal portion of RFLAT-1, including the zinc finger DNA binding domain (nucleotides 550–1430), was isolated through expression cloning using an oligonucleotide probe containing three tandem A sites of the RANTES promoter.
Background: In EMSA bound probe runs differently from free probe, usually more slowly.
Consider B1, for which the binding result is reported as “no binding”.

Turning to B2, the binding result is reported as “no binding”.

In the case of B3, the binding result is on record as “binds”.

With B4, the binding result is given as “no binding”.

For the molecule B5, the binding result is “no binding”.

Another data set addresses T1, RFLAT-1 C-terminal portion (aa 59-288). The experiment in a line: EMSA; two retarded bands, possible oligomerization. Conditions: tags: His6 (pET-28a); label: 32P. As for the experimental part: as §1, §2
As for B6, the binding result is reported as “binds”.
